Residue numbers refer to the chain shown, from its start.

In general, Kd refers to the concentration at which binding is half-saturated. High values mean a looser complex, low ones a tighter complex. One may read the EC50 as the concentration giving half of the maximal effect.

B1: scFv-E040-msFcγ2c (Fc fusion)
chain: DADPAQAAELVMTQSPDSLAVSLGERATINCKSSQSVLYSSNNENYLAWYQQKPGQPPKLLIYWASTRESGVPDRFSGSGSGTDFTLTINSVQAEDVAVYYCQQYFMTPITFGQGTRLEIKGGSSRSSSSGGGGSGGGGEVQLLESGGALVQPGRSLRLSCRTSGLNFGDYPINWVRQAPGKGLEWVGFIKSKSYGVTTEFAASVEGRFTISRDDSRGIAYLQMNSLKTEDTAVYYCTSSSGFLYYFDYWGQGTLVTVSSASTKGPSVTSGQAGRKLEPRVPITQNPCPPLKECPPCAAPDLLGGPSVFIFPPKIKDVLMISLSPMVTCVVVDVSEDDPDVQISWFVNNVEVHTAQTQTHREDYNSTLRVVSALPIQHQDWMSGKEFKCKVNNRALPSPIEKTISKPRGPVRAPQVYVLPPPAEEMTKKEFSLTCMITGFLPAEIAVDWTSNGRTEQNYKNTATVLDSDGSYFMYSKLRVQKSTWERGSLFACSVVHEGLHNHLTTKTISRSLGK
B2: scFv-D005-msFcγ2c (Fc fusion)
chain: B1 chain with S40T, E44K, A48G, K59N, L144V
B3: scFv-F052-msFcγ2c (Fc fusion)
chain: B1 chain with L10R, S18A, V37L, E44K, Q52K, D84E, R117K, E140Q, L144Q

In one test the target is T1, M2e (SEQ ID NO:48) conjugated to RNAse A (Influenza A virus (consensus of H1, H2 …)).
Assay: not given
For B1, the Kd turned out to be 13 pM.

B2 came in with a Kd of 4 pM.

As to B3, the Kd was determined as 6 pM.

The target in a further test is T1, M2e (SEQ ID NO:48) conjugated to RNAse A. Briefly: ELISA, apparent affinity, purified scFv-msFcγ2c on immobilised RNAse A-M2e. On the technique in general: An ELISA detects its analyte on a solid surface through an enzyme-linked reagent.
Regarding B1, the concentration for a half-maximal effect (EC50) came to 88.3 pM.

Take B2: the 50% effective concentration (EC50) amounted to 81.5 pM.

Regarding B3, the concentration giving a half-maximal response (EC50) amounted to 50.6 pM.
